Data from patent publication US20240133885A1.

Key:
[1] = target: J6MO-(vL-vH)-MYC-28z-T2A-Pac; assay: NLuc assay, supernatant on NK92MI cells expressing the CAR (no CAR 89)
[2] = target: HIV1 envelop glycoprotein gp120 (HIV1); assay: Luc assay, supernatant on HL2/3 cells expressing HIV1 gp120 (control 5700)
Lym1 [3] = assay: Luc assay, supernatant on BC-1 cells
Lym1 [4] = assay: Luc assay, supernatant on Raji cells
Lym1 [5] = assay: Luc assay, supernatant on U266 cells
Lym1 [6] = assay: Luc assay, supernatant on BCBL-1 cells
Lym1 [7] = assay: Luc assay, supernatant on MM1S cells
Lym1 [8] = assay: Luc assay, supernatant on BV173 cells
Lym1 [9] = assay: Luc assay, supernatant on JSC-1 cells
Lym1 [10] = assay: Luc assay, supernatant on BC-3 cells
[11] = target: CD20-GA10-(vL-vH)-MYC-BBz-T2A-PAC; assay: Luc assay, supernatant on Jurkat cells expressing the CAR (parental 484)
[12] = target: CD20-GA10-(vL-vH)-MYC-BBz-T2A-PAC; assay: Luc assay, supernatant on NK92MI cells expressing the CAR (parental 510)
[13] = target: CD200R-huDx182-(vL-vH)-Myc-BBz-T2A-PAC; assay: NLuc assay, supernatant on 293FT cells transfected with the CAR
[14] = target: FMC63-(vL-vH)-Myc-BBz-T2A-Pac; assay: as above
Amyloid [15] = assay: Luc assay, supernatant on U266 cells
Amyloid [16] = assay: Luc assay, supernatant on BCBL-1 cells
Amyloid [17] = assay: Luc assay, supernatant on MM1S cells
Amyloid [18] = assay: Luc assay, supernatant on BV173 cells
Amyloid [19] = assay: Luc assay, supernatant on JSC-1 cells
Amyloid [20] = assay: Luc assay, supernatant on BC-3 cells

BCMA-ECD-GGSG-NLuc-4xFlag-2xStreptag-8xHis-T2A-Pac (from UniProt Q02223 1-54) (receptor)
Mean Luc activity [1]: 602

CD8SP-HIV1-3BNC117-(vL-vH)-GGSG-NLuc-4xFLAG-x2STREP-8xHis-T2A-PAC (scFv)
Mean Luc activity [2]: 8870

CD8SP-HIV1-VR-C01-(vL-vH)-GGSG-NLuc-4xFLAG-x2STREP-8xHis-T2A-PAC (scFv)
Mean Luc activity [2]: 9330

CD8SP-HIV1-X5-(vL-vH)-GGSG-NLuc-4xFLAG-x2STREP-8xHis-T2A-PAC (scFv)
Mean Luc activity [2]: 12900

CD8SP-Lym1(vL-vH)-GGSG-NLuc-AcV5 (scFv)
MEAN LUC ACTIVITY (Lym1 [3]): 7390
MEAN LUC ACTIVITY (Lym1 [4]): 580000
Luc activity (Lym1 [5]): 258
MEAN LUC ACTIVITY (Lym1 [5]): 258
Luc activity (Lym1 [6]): 7780
MEAN LUC ACTIVITY (Lym1 [6]): 7780
Luc activity (Lym1 [7]): 1580
MEAN LUC ACTIVITY (Lym1 [7]): 1580
Luc activity (Lym1 [8]): 5560
MEAN LUC ACTIVITY (Lym1 [8]): 5560
Luc activity (Lym1 [9]): 6770
MEAN LUC ACTIVITY (Lym1 [9]): 6770
Luc activity (Lym1 [10]): 11700
MEAN LUC ACTIVITY (Lym1 [10]): 11700

CD20-ECx2-ECD-GGSG-TurboLuc16-4xFlag-2xStreptag-8xHis-T2A-Pac (receptor)
Mean Luc activity [11]: 7610
Mean Luc activity [12]: 1420

CD200R-ECD-GGSG-NLuc-4xFlag-2xStreptag-8xHis-T2A-Pac (receptor)
Mean Luc activity [13]: 18700

SLAMF7-CS1-ECD-GGSG-NLuc-4xFlag-2xStreptag-8xHis-T2A-Pac (receptor)
Mean Luc activity [14]: 37800

SP-Amyloid-158-(vL-vH)-GGSG-NLuc-4xFLAG-x2STREP-8xHis-T2A-PAC (scFv)
Luc activity (Amyloid [15]): 3930
Luc activity (Amyloid [16]): 5690
Luc activity (Amyloid [17]): 8170
Luc activity (Amyloid [18]): 6220
Luc activity (Amyloid [19]): 8230
Luc activity (Amyloid [20]): 3110
